Assay [1] has as its target (Z)-Dhb-containing 13-mer Erk peptide (DHTGFL-Dhb-EYVATR).
Assay [2] addresses T1, LanCL1 Wild Type (human LanC-like protein 1) (human, UniProt O43813 1-399).
T1 construct: LanC-like protein 1 (LanCL1), human; also called LanCL1 WT; WT-LanCL1; source: E. coli Rosetta 2 (DE3), purified (HisTrap Ni-NTA, PD-10 desalting)
Nature of the assay: fluorescence polarisation; competition: 20 μM LanCL1 WT, 20 nM fluorescein-Dha-Erk, acetyl peptide from 1000 μM in 2-fold dilutions; 15 min incubation; triplicates; dose-response fit, Ki = IC50/(1+[L]/Kd). Conditions: both partners purified. Background: Fluorescence polarisation rises when a labelled molecule tumbles more slowly, as on binding a larger partner.

Assay [3] deals with T2, human LanCL1, wild type (His6-LanCL1) (human, UniProt O43813 1-399).
T2 construct: LanCL1 (LanC-like protein 1), human; The tag is named on the protein for crystallisation; for the fluorescence polarisation nothing is said of it; also called WT LanCL1; native LanCL1; source: E. coli Rosetta(DE3), pET15b, purified (HisTrap, Superdex 200)
T2 sequence (O43813 whole entry): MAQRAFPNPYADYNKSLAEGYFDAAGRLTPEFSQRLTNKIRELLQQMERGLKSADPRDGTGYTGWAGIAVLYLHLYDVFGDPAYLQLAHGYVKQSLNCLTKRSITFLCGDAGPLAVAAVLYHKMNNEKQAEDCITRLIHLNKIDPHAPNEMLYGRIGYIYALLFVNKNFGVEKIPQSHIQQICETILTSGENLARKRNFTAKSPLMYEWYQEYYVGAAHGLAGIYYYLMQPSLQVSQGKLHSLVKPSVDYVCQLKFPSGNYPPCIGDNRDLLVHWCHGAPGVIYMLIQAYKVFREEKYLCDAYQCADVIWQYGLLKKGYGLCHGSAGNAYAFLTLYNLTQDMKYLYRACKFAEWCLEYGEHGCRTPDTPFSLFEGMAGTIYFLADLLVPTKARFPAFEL
Nature of the assay: crystal structure; cocrystals of His6-LanCL1 with GSH soaked in precipitant solution with 2 to 5 mM Dhb-Erk peptide (30, 60 or 90 min); 1.91 Å; the crystal holds the product of GSH addition to the peptide. The note with it: both partners purified.

Square brackets hold non-standard residues; d marks the D form. Ends that are not written are not given here. Dhb = C/C=C(\N)C(=O)O

T1 sequence (O43813 whole entry): as above

In assay [1], “LanCL1 C264A (from UniProt O43813 1-399) (enzyme)” returned a K (m,peptide) of GSH addition to (Z)-Dhb-Erk peptide (LC-MS initial rates, saturating GSH) of 85 µM.
Still for that read-out and setting: the result for “LanCL1 C264A/H277A (from UniProt O43813 1-399) (enzyme)” reads 240 µM.
For “LanCL1 C264A/H277D (from UniProt O43813 1-399) (enzyme)”, the kcat/K (m,peptide) of GSH addition to (Z)-Dhb-Erk peptide; substrate saturation could not be achieved in assay [1] was 6.17 M⁻¹ s⁻¹.
As for “LanCL1 C264A/H277K (from UniProt O43813 1-399) (enzyme)”, in assay [1], the kcat/K (m,peptide) of GSH addition to (Z)-Dhb-Erk peptide; substrate saturation could not be achieved was 2.67 M⁻¹ s⁻¹.
As for “LanCL1 C264A/H277N (from UniProt O43813 1-399) (enzyme)”, the K (m,peptide) of GSH addition to (Z)-Dhb-Erk peptide (LC-MS initial rates, saturating GSH) in assay [1] was 417 µM.
Same read-out and setting: the result for “LanCL1 C264A/H277Y (from UniProt O43813 1-399) (enzyme)” reads 69 µM.

B1: acetyl-Ala-Erk peptide (peptide)
peptide: Ac-DHTGFLAEYVATR
notes: Numbers count on: the synthetic 13-mer; Its preparation is not described; also called Ac-Ala-Erk
Broadly, the IC50 is the midpoint of a concentration-inhibition curve. Lower therefore signals inhibition by little substance. By Ki is commonly meant a dissociation constant, usually derived from enzyme kinetics or from competition with a known ligand. Read a low Ki as higher affinity. As to B1, in assay [2], the IC50 was 850 ± 490 µM and the inhibition constant Ki stood at 849 ± 489 µM.

B2: (Z)-Dhb-containing 13-mer Erk peptide (DHTGFL-Dhb-EYVATR) (peptide)
peptide: DHTGFL[Dhb]EYVATR
modifications: also: in the crystal Dhb reacted with GSH to form a methyllanthionine
notes: In PDB 8CZK density was seen only for the GFL-Dhb-EY segment, covalently joined to glutathione; also called Dhb-Erk; Dhb-Erk peptide
For B2, the binding result in assay [3] is on record as “binds”.

The values above are taken from article PMC9934072, “The mechanism of thia-Michael addition catalyzed by LanC enzymes” (Proceedings of the National Academy of Sciences of the …, 2023).
